Reference: the supplement of paper PMC7125110
± gives the standard error. Fewer inactive variants are shown than the library holds.

B1: glmS ribozyme (parent)
chain: AUAAAAGCGCCAGAACUACAGAAAUGUAGUUGACGAGGAGGAGGUUUAUCGAAUUUUCGGCGGAUGCCUCCAAA

Tests used:
Conditions in all cases: with glucosamine-6-phosphate
glucosamine-6-phosphate [1] = variants of: B1; assay: self-cleavage kobs at 640 uM GlcN6P; higher = faster cleavage; RNA array
Method in brief: (§1)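 On sequenced MiSeq chips, barcoded ribozyme variants were made in situ by E. coli RNA polymerase and followed at 37 °C through a hybridised Cy3 probe. Glucosamine-6-phosphate was flowed in at 40 μM to 10 mM in HEPES/KCl/Mg(OAc)2 buffer. Exponential fits to normalised per-tile medians gave kobs, and weighted Michaelis–Menten fits gave kcat and KM.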

glucosamine-6-phosphate [2] = variants of: B1; assay: self-cleavage kobs at 2500 uM GlcN6P; higher = faster cleavage; RNA array
Method in brief: as §1

glucosamine-6-phosphate [3] = variants of: B1; assay: self-cleavage kobs at 10000 uM GlcN6P; higher = faster cleavage; RNA array
Method in brief: as §1

Variant	self-cleavage kobs at 640 uM GlcN6P (glucosamine-6-phosphate [1]) [s⁻¹]	self-cleavage kobs at 2500 uM GlcN6P (glucosamine-6-phosphate [2]) [s⁻¹]	self-cleavage kobs at 10000 uM GlcN6P (glucosamine-6-phosphate [3]) [s⁻¹]
G29A G38C C70A	6.65e-05 ± 3.1e-05		
G29C G37C C68G	7.66e-05 ± 3.4e-05		
A6G C11A G59U G60C	< 1e-05		
G40A G51A G59A	< 1e-05		
G37A U55G C70U	0.000222 ± 4.2e-05	0.000106 ± 3e-05	
C10G U49C G66C	< 1e-05	< 1e-05	
C8U A14G A39G A53U U54G G63A	< 1e-05	< 1e-05	
G7A U55C C58G	< 1e-05		
G13U U30C C61A	< 1e-05		
C8U G40C C71U	< 1e-05	< 1e-05	
G32U A36U G62U	< 1e-05		
U31C A33U A36U G38C C58U U65G G66C C71U	< 1e-05	< 1e-05	
C10A A64U U69G	0.000351 ± 0.00014		
A6U C10U G35C A48U G63A	< 1e-05		
C10G A53U U57A	< 1e-05		
A15G A42U C71U	7.41e-05 ± 1.8e-05	0.000188 ± 5.3e-05	
G13A U54C C70U	9.94e-05 ± 2.2e-05	0.000291 ± 9.6e-05	
A39G G40U C50U	< 1e-05	< 1e-05	< 1e-05
A53U U55C U65A	0.00055 ± 9.7e-05	0.000947 ± 0.00018	0.00137 ± 0.00021
A14C U56G C68A	9.34e-05 ± 3.4e-05	8.68e-05 ± 2.2e-05	
G41U A53U U69G	< 1e-05		
G40C G41A G43U	< 1e-05		

Variant	self-cleavage kobs at 640 uM GlcN6P (glucosamine-6-phosphate [1]) [s⁻¹]	self-cleavage kobs at 2500 uM GlcN6P (glucosamine-6-phosphate [2]) [s⁻¹]	self-cleavage kobs at 10000 uM GlcN6P (glucosamine-6-phosphate [3]) [s⁻¹]
A15G G66U C71U	0.000559 ± 0.00011	0.00142 ± 0.00041	
C11U A15G C70U	0.000677 ± 0.00015	0.00215 ± 0.00061	
A14U G29C G51U	< 1e-05		
G32A G43A U57G	< 1e-05		
G35U G41A A64G	< 1e-05	< 1e-05	
C34G G44A U56C U57C	< 1e-05		
G38U G43U U65C C68G C71G	< 1e-05		
A6C U31C G62A	< 1e-05		
G13U C16G G29A A39G	0.000103 ± 3.7e-05	0.000286 ± 7.5e-05	
C11G A53U U55G C67G	0.000112 ± 4.8e-05		
A6C A53U C58U	< 1e-05	< 1e-05	
A12U G35U	< 1e-05		
A6U C16U G40U C67A	< 1e-05	< 1e-05	
C10U U31C A52U	< 1e-05		
C8U G29A U31A G37U A52G C71G	0.0078 ± 0.0033		
C10U G43U U45G	< 1e-05	< 1e-05	
A42U U69C	0.0106 ± 0.0031	0.00357 ± 0.0013	
A39U U49C C68G	< 1e-05	< 1e-05	< 1e-05
G7A G38C C58A	< 1e-05	< 1e-05	
A6G G37A G41A	< 1e-05	< 1e-05	< 1e-05
U45G U47A A52G C68G	< 1e-05		
U31G G41A U46G	7.29e-05 ± 2.3e-05	0.00021 ± 5.3e-05	

Variant	self-cleavage kobs at 640 uM GlcN6P (glucosamine-6-phosphate [1]) [s⁻¹]	self-cleavage kobs at 2500 uM GlcN6P (glucosamine-6-phosphate [2]) [s⁻¹]	self-cleavage kobs at 10000 uM GlcN6P (glucosamine-6-phosphate [3]) [s⁻¹]
A12G A39C G41U U47A A48U C61U A64U	< 1e-05	< 1e-05	
U55A G63U C70G	6.74e-05 ± 2.6e-05		
A39G A64C U69G C71U	< 1e-05	< 1e-05	
C8U U49A U69G	0.000871 ± 0.00023	0.000796 ± 0.00037	
A6U U56C C68G	< 1e-05	< 1e-05	
G9C A15C G32U G40C G66C	< 1e-05		
A36U A53G C58U C67G C70A	0.000184 ± 4.8e-05	0.00115 ± 0.00026	
A14U G26A C68G	5e-05 ± 2e-05	4.16e-05 ± 1.8e-05	
G59A G60U C67U	< 1e-05		
A12U A48C	0.000142 ± 2.1e-05	0.000341 ± 5.1e-05	
A14G A42C G63U	< 1e-05		
A39C C58G G63U U65A C71G	< 1e-05	< 1e-05	< 1e-05
G29U A36C G44U	< 1e-05		< 1e-05
C10U U47G G51U U57C C58G A64U	< 1e-05		
G21U C70G	0.000253 ± 5.1e-05	0.000154 ± 3.9e-05	9.23e-05 ± 2.3e-05
G35U G40U G63U C71G	< 1e-05		
C34G G37A U45A C58A	< 1e-05		
G9U A14C A64U C68A	< 1e-05	< 1e-05	
A14G G43C G51U A64G	< 1e-05		
G7U A12U G40U U55C C71A	< 1e-05	< 1e-05	
